The source of these data is the supplement of paper PMC5998384.

The subject of data set [1] is HeLa Kyoto. Put plainly: solubility change mitosis vs G1/S (difference of NP-40 vs SDS log2 ratios) (log2 ratio difference); higher = more soluble in mitosis.
Data set [2] relates to HeLa Kyoto. Briefly: solubility in G1/S (NP-40 vs SDS abundance) (log2 ratio); higher = more soluble. The following applies: cell cycle stage: G1/S.
In data set [3] the test system is HeLa Kyoto. Briefly: thermal stability score vs G1/S (z-score of summed log2 fold changes over temperatures); higher = more thermally stable than in G1/S.
Data set [4] concerns HeLa Kyoto. Put plainly: melting temperature (median over replicates), in situ; higher = more thermally stable.
Where [5] appears, read: cell cycle stage: early G1 (4.5 h after nocodazole release).
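Throughout, for melting temperature (median over replicates), in situ: HeLa Kyoto cells synchronized by double thymidine or nocodazole block, proteins quantified by TMT10plex mass spectrometry, three independent biological replicates.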
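Throughout, for solubility change mitosis vs G1/S (difference of NP-40 vs SDS log2 ratios): synchronized HeLa Kyoto cells (double thymidine block for G1/S, nocodazole release for mitosis), protein amounts in NP-40 versus SDS lysates quantified by mass spectrometry, three biological replicates.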
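Throughout, for solubility in G1/S (NP-40 vs SDS abundance): HeLa Kyoto cells arrested at G1/S by double thymidine block, proteins quantified by TMT10plex mass spectrometry in mild NP-40 versus SDS extracts, three biological replicates.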
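Throughout, for thermal stability score vs G1/S (z-score of summed log2 fold changes over temperatures): synchronized HeLa Kyoto cells, proteins quantified by TMT10plex mass spectrometry, three biological replicates, mitosis taken 0.5 h after nocodazole release, G1/S directly after double thymidine block.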

Regarding “MPFLELDTNLPANRVPAGLEKRLCAAAASILGKPADRVNVTVRPGLAMALSGSTEPCAQLSISSIGVVGTAEDNRSHSAHFFEFLTKELALGQDRILIRFFPLESWQIGKIGTVMTFL [DDT]”, the “solubility change mitosis (log2)” value in the data set on HeLa Kyoto [1] is -0.0844. Besides, the “solubility in G1/S (log2)” value in the data set on HeLa Kyoto [2] amounted to 0.57. Moreover, the thermal stability score is -2.25 in the data set on HeLa Kyoto [3] (setting [5]) and -2.27 with HeLa Kyoto [3] (cell cycle stage: mitosis). In addition, the melting temperature in the data set on HeLa Kyoto [4] (cell cycle stage: G1/S) was 56.1 °C; in the data set on HeLa Kyoto [4] (cell cycle stage: mitosis), 57.4 °C.
Regarding “MHFSIPETESRSGDSGGSAYVAYNIHVNGVLHCRVRYSQLLGLHEQLRKEYGANVLPAFPPKKLFSLTPAEVEQRREQLEKYMQAVRQDPLLGSSETFNSFLRRAQQETQQVPTEEVSLEVLLSNGQKVLVNVLTSDQTEDVLEAVAAKLDLPDDLIGYFSLFLVREKEDGAFSFVRKLQEFELPYVSVTSLRSQEYKIVLRKSYWDSAYDDDVMENRVGLNLLYAQTVSDIERGWILVTKEQHRQLKSLQEKVSKKEFLRLAQTLRHYGYLRFDACVADFPEKDCPVVVSAGNSELSLQLRLPGQQLREGSFRVTRMRCWRVTSSVPLPSGSTSSPGRGRGEVRLELAFEYLMSKDRLQWVTITSPQAIMMSICLQSMVDELMVKKSGGSIRKMLRRRVGGTLRRSDSQQAVKSPPLLESPDATRESMVKLSSKLSAVSLRGIGSPSTDASASDVHGNFAFEGIGDEDL [SNX17]”, the “solubility change mitosis (log2)” value in the data set on HeLa Kyoto [1] is -0.263. Further, the “solubility in G1/S (log2)” value in the data set on HeLa Kyoto [2] was determined as 0.103. In addition, the thermal stability score in the data set with HeLa Kyoto [3] (setting [5]) amounted to 1.32; in the data set on HeLa Kyoto [3] (cell cycle stage: mitosis), 0.59. For the same sequence, the results for the melting temperature with HeLa Kyoto [4] (cell cycle stage: G1/S) and in the data set on HeLa Kyoto [4] (cell cycle stage: mitosis) were 50.9 °C and 51.4 °C, respectively.
On to “MAAAALGQIWARKLLSVPWLLCGPRRYASSSFKAADLQLEMTQKPHKKPGPGEPLVFGKTFTDHMLMVEWNDKGWGQPRIQPFQNLTLHPASSSLHYSLQLFEGMKAFKGKDQQVRLFRPWLNMDRMLRSAMRLCLPSFDKLELLECIRRLIEVDKDWVPDAAGTSLYVRPVLIGNEPSLGVSQPTRALLFVILCPVGAYFPGGSVTPVSLLADPAFIRAWVGGVGNYKLGGNYGPTVLVQQEALKRGCEQVLWLYGPDHQLTEVGTMNIFVYWTHEDGVLELVTPPLNGVILPGVVRQSLLDMAQTWGEFRVVERTITMKQLLRALEEGRVREVFGSGTACQVCPVHRILYKDRNLHIPTMENGPELILRFQKELKEIQYGIRAHEWMFPV [BCAT2]”, for which the “solubility change mitosis (log2)” value in the data set on HeLa Kyoto [1] was -0.156. In addition, in the data set on HeLa Kyoto [2], the “solubility in G1/S (log2)” value was -0.077. In addition, the results for the thermal stability score in the data set with HeLa Kyoto [3] (setting [5]) and in the data set on HeLa Kyoto [3] (cell cycle stage: mitosis) were -0.771 and -0.0554, respectively. Moreover, the melting temperature in the data set on HeLa Kyoto [4] (cell cycle stage: G1/S) stood at 55.4 °C; in the data set on HeLa Kyoto [4] (cell cycle stage: mitosis) it was 55.1 °C.
As to “MKIFCSRANPTTGSVEWLEEDEHYDYHQEIARSSYADMLHDKDRNVKYYQGIRAAVSRVKDRGQKALVLDIGTGTGLLSMMAVTAGADFCYAIEVFKPMADAAVKIVEKNGFSDKIKVINKHSTEVTVGPEGDMPCRANILVTELFDTELIGEGALPSYEHAHRHLVEENCEAVPHRATVYAQLVESGRMWSWNKLFPIHVQTSLGEQVIVPPVDVESCPGAPSVCDIQLNQVSPADFTVLSDVLPMFSIDFSKQVSSSAACHSRRFEPLTSGRAQVVLSWWDIEMDPEGKIKCTMAPFWAHSDPEEMQWRDHWMQCVYFLPQEEPVVQGSALYLVAHHDDYCVWYSLQRTSPEKNERVRQMRPVCDCQAHLLWNRPRFGEINDQDRTDRYVQALRTVLKPDSVCLCVSDGSLLSVLAHHLGVEQVFTVESSAASHKLLRKIFKANHLEDKINIIEKRPELLTNEDLQGRKVSLLLGEPFFTTSLLPWHNLYFWYVRTAVDQHLGPGAMVMPQAASLHAVVVEFRDLWRIRSPCGDCEGFDVHIMDDMIKRALDFRESREAEPHPLWEYPCRSLSEPWQILTFDFQQPVPLQPLCAEGTVELRRPGQSHAAVLWMEYHLTPECTLSTGLLEPADPEGGCCWNPHCKQAVYFFSPAPDPRALLGGPRTVSYAVEFHPDTGDIIMEFRHADTPD [PRMT7]”, the “solubility change mitosis (log2)” value in the data set with HeLa Kyoto [1] was -0.0142. Moreover, the “solubility in G1/S (log2)” value in the data set on HeLa Kyoto [2] was -0.014. Moreover, the thermal stability score in the data set on HeLa Kyoto [3] (setting [5]) is 0.131; in the data set with HeLa Kyoto [3] (cell cycle stage: mitosis), 1.01. The melting temperature in the data set on HeLa Kyoto [4] (cell cycle stage: G1/S) is 49.5 °C; in the data set on HeLa Kyoto [4] (cell cycle stage: mitosis), 51 °C.
Consider “MRPLTEEETRVMFEKIAKYIGENLQLLVDRPDGTYCFRLHNDRVYYVSEKIMKLAANISGDKLVSLGTCFGKFTKTHKFRLHVTALDYLAPYAKYKVWIKPGAEQSFLYGNHVLKSGLGRITENTSQYQGVVVYSMADIPLGFGVAAKSTQDCRKVDPMAIVVFHQADIGEYVRHEETLT [NIP7]”, for which the “solubility change mitosis (log2)” value in the data set on HeLa Kyoto [1] was found to be 0.622. The “solubility in G1/S (log2)” value in the data set on HeLa Kyoto [2] is -1.97. In addition, the results for the thermal stability score in the data set on HeLa Kyoto [3] (setting [5]) and in the data set with HeLa Kyoto [3] (cell cycle stage: mitosis) were -2 and -2.49, respectively. Also, the results for the melting temperature with HeLa Kyoto [4] (cell cycle stage: G1/S) and in the data set with HeLa Kyoto [4] (cell cycle stage: mitosis) were 55.5 °C and 53.8 °C, respectively.
